Experimental data published in patent publication US20160209421A1 (UNIVERSITY OF TOKYO, published 2016).
Bridge positions count the residues as written; N and C are the ends. Square brackets hold non-standard residues; d marks the D form. * marks the point of attachment. chloroacetamidine = chloroacetamidine warhead on ornithine δ-NH2, N=C(CCl)*; Ahp(2) = CCCCC[C@H](N)C(=O)O; Orn = NCCC[C@H](N)C(=O)O

B1: VB1C12 peptide (peptide)
peptide: {CH2CO}-[dF]NA[Ahp(2)]YPYRPP[Ahp(2)]TSC-NH2
modifications: thioether N-14
SMILES: CCCCC[C@@H]1NC(=O)[C@H](C)NC(=O)[C@H](CC(N)=O)NC(=O)[C@@H](Cc2ccccc2)NC(=O)CSC[C@@H](C(N)=O)NC(=O)[C@H](CO)NC(=O)[C@H]([C@@H](C)O)NC(=O)[C@H](CCCCC)NC(=O)[C@@H]2CCCN2C(=O)[C@@H]2CCCN2C(=O)[C@H](CCCNC(=N)N)NC(=O)[C@H](Cc2ccc(O)cc2)NC(=O)[C@@H]2CCCN2C(=O)[C@H](Cc2ccc(O)cc2)NC1=O
B2: VB1C20 peptide (peptide)
peptide: {CH2CO}-[dF]DA[Ahp(2)]YPFRPP[Ahp(2)]AHC-NH2
modifications: thioether N-14
SMILES: CCCCC[C@@H]1NC(=O)[C@H](C)NC(=O)[C@H](CC(=O)O)NC(=O)[C@@H](Cc2ccccc2)NC(=O)CSC[C@@H](C(N)=O)NC(=O)[C@H](Cc2c[nH]cn2)NC(=O)[C@H](C)NC(=O)[C@H](CCCCC)NC(=O)[C@@H]2CCCN2C(=O)[C@@H]2CCCN2C(=O)[C@H](CCCNC(=N)N)NC(=O)[C@H](Cc2ccccc2)NC(=O)[C@@H]2CCCN2C(=O)[C@H](Cc2ccc(O)cc2)NC1=O
B3: VB1C12-Cl-amidine analog (peptide)
peptide: {CH2CO}-[dF]NA[Ahp(2)]YPY[Orn](chloroacetamidine)PP[Ahp(2)]TSC-NH2
modifications: thioether N-14
SMILES: CCCCC[C@@H]1NC(=O)[C@H](C)NC(=O)[C@H](CC(N)=O)NC(=O)[C@@H](Cc2ccccc2)NC(=O)CSC[C@@H](C(N)=O)NC(=O)[C@H](CO)NC(=O)[C@H]([C@@H](C)O)NC(=O)[C@H](CCCCC)NC(=O)[C@@H]2CCCN2C(=O)[C@@H]2CCCN2C(=O)[C@H](CCCNC(=N)CCl)NC(=O)[C@H](Cc2ccc(O)cc2)NC(=O)[C@@H]2CCCN2C(=O)[C@H](Cc2ccc(O)cc2)NC1=O

Columns and labels:
His-PAD4 = biological target: T1, His-PAD4 (human, UniProt Q9UM07 1-663); test: SPR (Biacore T100, Ni-NTA sensor chip, His-PAD4 immobilized, peptide injected, 25 C)
T1 construct: Immobilised on a Ni-NTA sensor chip for SPR; No other PAD4 is described; also called peptidyl arginine deaminase 4; not shown: His tag
T1 sequence (Q9UM07 whole entry): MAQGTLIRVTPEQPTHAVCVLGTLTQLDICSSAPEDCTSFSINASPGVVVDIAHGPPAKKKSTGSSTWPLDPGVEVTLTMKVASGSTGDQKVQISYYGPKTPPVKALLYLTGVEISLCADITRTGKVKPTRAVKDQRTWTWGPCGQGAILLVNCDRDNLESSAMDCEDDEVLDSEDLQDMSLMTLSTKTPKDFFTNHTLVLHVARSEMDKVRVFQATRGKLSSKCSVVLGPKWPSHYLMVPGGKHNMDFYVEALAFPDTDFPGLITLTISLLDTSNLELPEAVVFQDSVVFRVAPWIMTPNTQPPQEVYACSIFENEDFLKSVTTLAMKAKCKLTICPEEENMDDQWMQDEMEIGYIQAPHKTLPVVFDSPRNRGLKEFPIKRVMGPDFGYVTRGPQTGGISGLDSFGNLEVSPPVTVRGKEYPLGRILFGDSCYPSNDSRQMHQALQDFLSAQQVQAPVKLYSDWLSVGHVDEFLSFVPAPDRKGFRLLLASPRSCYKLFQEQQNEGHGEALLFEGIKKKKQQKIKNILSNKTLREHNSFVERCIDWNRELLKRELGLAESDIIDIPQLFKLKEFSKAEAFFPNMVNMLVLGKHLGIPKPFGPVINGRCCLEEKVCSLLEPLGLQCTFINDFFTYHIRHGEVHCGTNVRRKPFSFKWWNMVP
Experimental: Analysis of a reaction rate was performed at 25° C. using Biacore T100 instrument (GE healthcare) and a Ni-NTA sensor chip. His-PAD4 was immobilized on a chip surface. In any experiment, modified HBS-EP+(10 mM HEPES-KOH [pH 7.4], 150 mM NaCl, 50 μM EDTA, 0.05% Tween 20, 0.1% DMSO) was used as a running buffer. The reaction rate data were corrected by injecting five peptides having respectively different concentrations for one minute at a flow rate (10 mM HEPES-KOH [pH 7.4], 150 mM NaCl, 50 μM EDTA, 0.05% Tween 20, 0.1% DMSO). Peptide dissociation was performed for one minute during injection and for 3 minutes after the last injection.
Background binding was monitored by performing blank buffer injection twice before sample injection and once after sample injection in order to double reference with the surface of a negative control having no His-PAD4 bound thereto but having nickel. The binding sensorgram, the binding sensorgram was analyzed using the Biacore software.

Human PAD4 = Human PAD4 (human, UniProt Q9UM07 1-663); test: cell-based or functional assay
Human PAD4, sequence (Q9UM07 whole entry): as above

Binder | Kd (His-PAD4) [nM] | koff (His-PAD4) [s⁻¹] | kon (His-PAD4) [M⁻¹ s⁻¹] | IC50 (read off the curve) (Human PAD4) [nM]
B1 | 55 | 0.00664 | 121000 | –
B2 | 38.7 | 0.00356 | 92100 | –
B3 | – | – | – | ~8000
